The results in this text go back to patent US6034212.

Broadly, the IC50 is the midpoint of a concentration-inhibition curve. A higher IC50 goes with weaker potency.

Ends that are not written are not given here. * marks the point of attachment. Biotin = O=C1N[C@H]2[C@H](CS[C@H]2CCCCC(=O)*)N1

For experiment [1], the target named is GST-WW-YAP fusion protein (WW domain of human YAP in pGEX-2TK) (human). Put plainly: competition of a fixed concentration of labelled GST-WW-YAP on blotted GST-…, densitometry (data not shown).
Experiment [2] deals with GST-SH3-Yes fusion protein (Gallus gallus (Chicken)) (UniProt P09324). Put plainly: competition of labeled GST-YES-SH3 binding to blotted TrpE-YAP65.

In experiment [1], Biotin-GTPPPPYTVG [unlabelled decapeptide biotin-… containing the PY motif] displayed an IC50 of 750 nM. This counts as sub-micromolar.

In experiment [2], ISQSAPVKQPPPLAPQSPQGGV [PLAP peptide] yielded a concentration required to partially compete for binding of 200 µM.
